Test results as given in patent US20240376200A1 (Seagen, published 2024).
Numbering of substitutions follows the chain as printed. In names and notes the source's numbering stands. Read-outs that look alike come from different tables or passages of the source.

Legend:
recombinant human CD47 [1] = target: T1, recombinant human CD47 (human, UniProt Q08722 19-139, limits assumed); assay: saturation binding ELISA
T1 construct: also called recombinant CD47 antigen

recombinant human CD47 [2] = target: T1, recombinant human CD47; assay: saturation binding ELISA; remark: listed apart in the source
recombinant human CD47 [3] = target: T1, recombinant human CD47; assay: saturation binding ELISA; remark: listed apart in the source
[4] = circular dichroism thermal denaturation at 222 nm
[5] = target: T2, Coil 10 heavy chain peptide for CD studies (VelB L24I); assay: circular dichroism thermal denaturation at 222 nm, 150 µM total peptide
T2 construct: also called Coil 10 (L24I); L24I VelB variant
T2 peptide: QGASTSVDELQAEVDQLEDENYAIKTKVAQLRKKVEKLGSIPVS

[6] = target: T3, Vel heavy chain peptide for CD studies (VelB); assay: as above
T3 construct: also called VelB (heavy chain) peptide; VelB1
T3 peptide: T2 peptide with I24L

[7] = target: T4, Coil 148 heavy chain peptide for CD studies (VelB L24I/V28L); assay: as above
T4 construct: also called Coil 148 (L24I/V28L)
T4 peptide: T2 peptide with V28L

B1: Vel-IPV-hB6H12.3 Coil 152 (antibody, part only; not given: hB6H12.3 heavy and light chains, part only)
heavy, part: QGASTSVDELQAEVDQLEDENYAHKTKVAQLRKKVEKLGSIPVSLRSG
light, part: QGASTTVAQLEEKVKTLRAENYELKSEAQREEEQVAQLGSIPVSLRSG
Binding Bmax (OD450) (recombinant human CD47 [1]): 1.5 OD450 | EC50 (recombinant human CD47 [1]): 31.7 nM | EC50 fold change from hB6H12.3 (recombinant human CD47 [1]): 12 fold

B2: hB6H12.3 (unmasked anti-CD47 antibody) (antibody, V domains shown)
VH: EVQLLESGGGLVQPGGSLRLSCAASGFTFSGYGMSWVRQAPGKRLEWVATITSGGTYTYYPDSVKGRFTISRDNSKNTLYLQMNSLRAEDTAIYFCARSLAGNAMDYWGQGTLVTVSS
VL: EIVMTQSPDFQSVTPKEKVTLTCRASQTISDYLHWYQQKPDQSPKLLIKFASQSISGVPSRFSGSGSGSDFTLTINSLEAEDAATYYCQNGHGFPRTFGQGTKLEIKR
EC50 (recombinant human CD47 [2]): 2.55 nM | EC50 (recombinant human CD47 [3]): 2.55 nM

B3: Vel-IPV-hB6H12.3 (wild-type Vel mask, Coil 1) (antibody, V domains shown)
VH: B2 VH
VL: EIVMTQSPDFQSVTPKEKVTLTCRASQTISDYLHWYQQKPDQSPKLLIKFASQSISGVPSRFSGSGSGSDFTLTINSLEAEDAATYYCQNGHGFPRTFGQGTKLEIK
EC50 (recombinant human CD47 [2]): 494 nM | EC50 fold change from hB6H12.3 (recombinant human CD47 [2]): 194 fold

B4: Coil 10 light chain peptide for CD studies (VelA L24A) (peptide)
peptide: QGASTTVAQLEEKVKTLRAENYEAKSEVQRLEEQVAQLGSIPVS
notes: also called Coil 10 (L24A); L24A VelA variant
Tm (melting temperature of the light chain homodimer) [4]: Tm=<20 °C | Tm (melting temperature of the heterodimer) [5]: 28.6 ° C.

B5: Vel light chain peptide for CD studies (VelA) (peptide)
peptide: B4 peptide with A24L
notes: also called VelA (light chain) peptide; VelA1
Tm (melting temperature of the light chain homodimer) [4]: Tm=35.7 °C | Tm (melting temperature of the heterodimer) [6]: 57.6 ° C.

QGASTTVAQLEEKVKTLRAENYEAKSELQRLEEQVAQLGSIPVS (also called Coil 148 (L24A/V28L)) [Coil 148 light chain peptide for CD studies (VelA L24A/V28L)]
Tm (melting temperature of the light chain homodimer) [4]: Tm=<20 °C | Tm (melting temperature of the heterodimer) [7]: 39.7 ° C.

QGASTSVDELQAEVDQLEDENYAIKTKLAQLRKKVEKLGSIPVS [Coil 148 heavy chain peptide for CD studies (VelB L24I/V28L)]
Tm (melting temperature of the heavy chain homodimer) [4]: Tm=40.8 °C

QGASTSVDELQAEVDQLEDENYALKTKVAQLRKKVEKLGSIPVS [Vel heavy chain peptide for CD studies (VelB)]
Tm (melting temperature of the heavy chain homodimer) [4]: Tm=23.3 °C

QGASTSVDELQAEVDQLEDENYAIKTKVAQLRKKVEKLGSIPVS [Coil 10 heavy chain peptide for CD studies (VelB L24I)]
Tm (melting temperature of the heavy chain homodimer) [4]: Tm=21.0 °C
